Measured values as given in patent US20180296691A1 (Pfizer, published 2018).

What was measured:
Assay in all cases: SPR (BIAcore 2000), Eph receptor captured via anti-human antibody capture kit, monomeric human Ephrin-A4 12-400 nM as analyte, steady state affinity fit
[1] = target: T1, recombinant EphA7 receptor (commercially available) (UniProt Q15375 28-555, limits assumed)
T1 sequence (looked up): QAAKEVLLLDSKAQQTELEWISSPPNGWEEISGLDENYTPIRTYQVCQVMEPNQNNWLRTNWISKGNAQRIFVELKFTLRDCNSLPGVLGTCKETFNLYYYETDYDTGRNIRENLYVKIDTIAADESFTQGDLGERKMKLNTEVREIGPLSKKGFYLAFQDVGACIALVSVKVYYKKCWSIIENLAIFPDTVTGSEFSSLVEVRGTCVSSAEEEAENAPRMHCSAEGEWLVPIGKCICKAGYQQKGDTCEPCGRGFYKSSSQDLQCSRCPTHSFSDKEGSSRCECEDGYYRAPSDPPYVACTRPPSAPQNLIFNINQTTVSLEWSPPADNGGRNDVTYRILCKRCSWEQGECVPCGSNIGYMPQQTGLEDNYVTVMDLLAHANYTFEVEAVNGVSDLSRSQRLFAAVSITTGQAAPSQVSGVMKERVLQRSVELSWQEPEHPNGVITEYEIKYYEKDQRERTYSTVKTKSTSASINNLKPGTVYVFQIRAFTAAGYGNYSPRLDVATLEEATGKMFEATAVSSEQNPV
Protocol: (§1) An anti-human antibody capture kit was used to immobilize recombinant Eph receptors on a CM5 biosensor chip. Prior to each antigen injection cycle, Eph receptors at the concentration of 2 μg/mL were captured on the surface with a contact time of 2 minutes and a flow rate of 5 μL/min. The captured antibody loading from baseline was constant at 150-260 response units. […] Following each cycle, the anti-human capture surface was regenerated with 30 seconds contact time of 3M MgCl₂ at 10 μL/min.
(§2) Biacore data was processed by initially calculating an average of the response at equilibrium (Req). The Req was then plotted versus concentration (M) and the steady state affinity fit was used to calculate the affinity and theoretical Rmax. In all cases, at least 5 different analyte concentrations were used to make this calculation. All data analysis steps were completed in BiaEvaluation Software 3.1 (GE Healthcare).

[2] = target: recombinant EphA2 receptor (commercially available) (UniProt P29317 25-534, limits assumed)
Protocol: as §1, §2

[3] = target: recombinant EphA4 receptor (commercially available) (UniProt P54764 20-547, limits assumed)
Protocol: as §1, §2

[4] = target: T2, recombinant EphA6 receptor (commercially available) (UniProt Q9UF33 23-550, limits assumed)
T2 sequence (looked up): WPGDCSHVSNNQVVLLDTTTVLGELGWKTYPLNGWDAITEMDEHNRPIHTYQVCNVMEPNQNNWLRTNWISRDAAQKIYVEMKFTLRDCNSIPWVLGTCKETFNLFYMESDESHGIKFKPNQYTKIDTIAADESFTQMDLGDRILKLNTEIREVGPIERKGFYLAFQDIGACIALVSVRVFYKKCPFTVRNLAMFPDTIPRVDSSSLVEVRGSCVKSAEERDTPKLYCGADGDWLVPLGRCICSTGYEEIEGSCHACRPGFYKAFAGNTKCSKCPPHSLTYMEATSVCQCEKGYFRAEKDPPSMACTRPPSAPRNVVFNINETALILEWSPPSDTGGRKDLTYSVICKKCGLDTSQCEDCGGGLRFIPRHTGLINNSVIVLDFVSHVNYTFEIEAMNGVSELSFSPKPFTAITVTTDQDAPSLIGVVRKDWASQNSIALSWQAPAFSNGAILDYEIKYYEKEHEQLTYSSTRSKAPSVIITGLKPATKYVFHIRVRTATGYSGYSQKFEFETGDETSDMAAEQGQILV
Protocol: as §1, §2

[5] = target: T3, recombinant EphA3 receptor (commercially available) (UniProt P29320 21-541, limits assumed)
T3 sequence (looked up): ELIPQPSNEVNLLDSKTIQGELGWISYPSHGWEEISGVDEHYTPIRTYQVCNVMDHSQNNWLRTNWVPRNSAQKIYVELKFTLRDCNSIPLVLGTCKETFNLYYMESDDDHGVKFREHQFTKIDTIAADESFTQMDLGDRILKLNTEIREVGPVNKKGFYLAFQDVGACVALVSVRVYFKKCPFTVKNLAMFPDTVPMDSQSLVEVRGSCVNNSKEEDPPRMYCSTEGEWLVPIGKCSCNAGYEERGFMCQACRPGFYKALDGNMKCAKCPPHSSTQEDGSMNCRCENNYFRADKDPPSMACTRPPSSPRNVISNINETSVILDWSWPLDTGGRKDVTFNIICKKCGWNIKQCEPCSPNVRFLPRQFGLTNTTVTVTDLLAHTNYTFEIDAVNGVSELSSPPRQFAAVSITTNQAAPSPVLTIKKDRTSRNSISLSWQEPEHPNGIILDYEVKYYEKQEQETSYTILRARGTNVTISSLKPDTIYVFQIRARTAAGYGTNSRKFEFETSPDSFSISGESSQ
Protocol: as §1, §2

[6] = target: T4, recombinant EphA10 receptor (commercially available) (UniProt Q5JZY3 34-565, limits assumed)
T4 sequence (looked up): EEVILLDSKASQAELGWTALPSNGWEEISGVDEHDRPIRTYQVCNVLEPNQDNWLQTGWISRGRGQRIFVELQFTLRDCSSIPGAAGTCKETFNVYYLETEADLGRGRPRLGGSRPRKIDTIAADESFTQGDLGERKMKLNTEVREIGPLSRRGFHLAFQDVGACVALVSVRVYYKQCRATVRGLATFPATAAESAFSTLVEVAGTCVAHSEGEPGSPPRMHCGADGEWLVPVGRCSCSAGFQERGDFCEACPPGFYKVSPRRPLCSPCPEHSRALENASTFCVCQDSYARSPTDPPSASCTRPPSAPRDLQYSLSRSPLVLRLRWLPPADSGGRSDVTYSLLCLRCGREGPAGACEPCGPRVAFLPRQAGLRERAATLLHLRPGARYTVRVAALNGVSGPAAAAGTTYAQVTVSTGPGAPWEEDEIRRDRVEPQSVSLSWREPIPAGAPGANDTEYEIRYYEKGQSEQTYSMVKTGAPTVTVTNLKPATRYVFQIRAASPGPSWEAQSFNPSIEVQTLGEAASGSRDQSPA
Protocol: as §1, §2

[7] = target: T5, recombinant EphB2 receptor (commercially available) (UniProt P29323 19-543, limits assumed)
T5 sequence (looked up): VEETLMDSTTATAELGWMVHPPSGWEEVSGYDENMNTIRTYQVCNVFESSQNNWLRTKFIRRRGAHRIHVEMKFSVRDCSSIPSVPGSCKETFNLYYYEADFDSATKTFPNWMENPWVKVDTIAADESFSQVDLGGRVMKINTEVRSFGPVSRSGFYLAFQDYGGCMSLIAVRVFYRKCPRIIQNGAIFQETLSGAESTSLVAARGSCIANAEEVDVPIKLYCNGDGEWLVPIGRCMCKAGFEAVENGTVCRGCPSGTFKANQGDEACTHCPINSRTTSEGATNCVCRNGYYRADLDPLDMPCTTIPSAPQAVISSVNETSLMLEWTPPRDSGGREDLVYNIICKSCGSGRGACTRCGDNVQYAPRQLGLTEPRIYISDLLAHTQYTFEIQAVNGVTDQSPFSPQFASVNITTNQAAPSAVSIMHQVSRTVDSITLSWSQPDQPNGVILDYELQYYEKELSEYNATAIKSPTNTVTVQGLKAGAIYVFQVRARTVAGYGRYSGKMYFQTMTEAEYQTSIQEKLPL
Protocol: as §1, §2

recombinant EphA4 receptor (commercially available), sequence (P54764 20-547 limits assumed): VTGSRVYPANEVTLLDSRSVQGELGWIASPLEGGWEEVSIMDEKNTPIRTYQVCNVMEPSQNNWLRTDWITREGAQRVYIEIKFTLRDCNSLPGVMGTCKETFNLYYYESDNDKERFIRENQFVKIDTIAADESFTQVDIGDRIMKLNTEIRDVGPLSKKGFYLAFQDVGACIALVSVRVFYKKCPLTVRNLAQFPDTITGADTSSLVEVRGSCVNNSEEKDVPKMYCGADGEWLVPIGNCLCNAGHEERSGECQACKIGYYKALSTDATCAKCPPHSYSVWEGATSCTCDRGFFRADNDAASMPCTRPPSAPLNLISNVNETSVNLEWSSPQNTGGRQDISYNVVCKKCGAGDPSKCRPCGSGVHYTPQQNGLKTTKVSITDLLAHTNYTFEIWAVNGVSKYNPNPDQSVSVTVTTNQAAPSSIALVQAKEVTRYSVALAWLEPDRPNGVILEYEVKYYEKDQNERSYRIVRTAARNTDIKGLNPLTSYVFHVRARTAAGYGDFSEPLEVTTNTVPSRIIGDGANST
recombinant EphA2 receptor (commercially available), sequence (P29317 25-534 limits assumed): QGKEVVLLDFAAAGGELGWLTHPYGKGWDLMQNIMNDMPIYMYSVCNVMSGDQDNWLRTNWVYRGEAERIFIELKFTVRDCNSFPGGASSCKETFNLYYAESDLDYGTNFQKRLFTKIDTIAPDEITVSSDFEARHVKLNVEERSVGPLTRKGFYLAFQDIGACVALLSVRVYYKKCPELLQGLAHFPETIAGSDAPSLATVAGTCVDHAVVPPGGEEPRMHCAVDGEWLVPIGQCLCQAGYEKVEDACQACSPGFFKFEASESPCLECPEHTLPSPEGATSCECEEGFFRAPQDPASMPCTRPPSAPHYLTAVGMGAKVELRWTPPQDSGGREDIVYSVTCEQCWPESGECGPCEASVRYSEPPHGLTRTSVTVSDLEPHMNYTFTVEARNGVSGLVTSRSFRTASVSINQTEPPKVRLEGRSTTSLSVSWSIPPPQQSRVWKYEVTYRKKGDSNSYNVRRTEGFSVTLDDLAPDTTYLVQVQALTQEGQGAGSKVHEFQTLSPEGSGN

B1: monomeric human Ephrin-A4 (ligand)
chain: LRHVVYWNSSNPRLLRGDAVVELGLNDYLDIVCPHYEGPGPPEGPETFALYMVDWPGYESCQAEGPRAYKRWVCSLPFGHVQFSEKIQRFTPFSLGFEFLPGETYYYISVPTPESSGQCLRLQVSVCCKERKSESAHPVGSPGES
Kd [1]: 86 nM | Kd [2]: 31 nM | Kd [3]: 122 nM | Kd [4]: 82 nM | Kd [5]: 77 nM | Kd [6]: 431 nM | Kd [7]: 135 nM
